# Test results published in the RNAGym collection of RNA variant scans (doi:10.7554/elife.80360).
# B1: HDV Ribozyme (parent)
# chain: GGCCGGCAUGGUCCCAGCCUCCUCGCUGGCGCCGGCUGGGCAACAUUCCGAGGGGACCGUCCCCUCGGUAAUGGCGAAUGGGACCCA
# Variants of: B1
# Experiment: self-cleavage, relative activity (ratio to wild type); higher = more cleavage; co-transcriptional
row,Variant,self-cleavage
1,G54A G55A,1.29
2,G54A G55U,0.993
3,G54C C63U,0.774
4,G54C C63G,0.831
5,G53C A83C,0.525
6,G52U U60C,0.961
7,G53U G59C,1.23
8,G53U G59A,1.14
9,G53U G59U,0.899
10,G53U U72A,0.798
11,G53U U72G,0.554
12,G53U U72C,0.563
13,G53U C64G,0.62
14,G53C C63A,1.06
15,G53C C63G,0.973
16,G53C U79G,0.443
17,G53C U79A,0.538
18,G53A G74C,0.265
19,G53A G74U,0.59
20,G53A A78U,0.277
21,G53A A78G,0.618
22,G54C C62U,0.746
23,G54U A87U,0.973
24,G54U A87C,1.06

row,Variant,self-cleavage
1,G54U A87G,0.933
2,G54C A71U,0.731
3,G53U C66G,0.821
4,G53U C66U,1.15
5,G54A G74C,0.194
6,G54A G74A,0.445
7,G54A G74U,0.562
8,G53C U65G,0.688
9,G53C C61G,0.955
10,G53C C61U,1.2
11,G54C G81A,0.393
12,G54C G81C,0.196
13,G54C G81U,0.19
14,G52U G76U,1.05
15,G52U G76C,0.921
16,G52U G67A,0.265
17,G53C G74U,0.379
18,G53C G74C,0.19
19,G54U C63G,0.749
20,G54U C63A,0.901
21,G54A G73C,0.527
22,G54A G73A,0.394
23,G54A G73U,0.211
24,G53C A87U,0.903

row,Variant,self-cleavage
1,G53A C63A,0.819
2,G53A C63G,1.01
3,G54A C57U,1.02
4,G54A C57A,0.818
5,G53C C58U,1.14
6,G53C C58A,1.06
7,G54C C86U,0.923
8,G53A G54C,0.857
9,G54C C64U,0.82
10,G54A A77G,0.614
11,G54A A77U,0.634
12,G54A A87G,0.877
13,G53A C62U,0.926
14,G54A C86G,1.07
15,G54A C86U,0.992
16,G54A C86A,0.988
17,G52U C75A,0.148
18,G54A C63G,0.816
19,G54A C63U,1.04
20,G54C G80C,0.256
21,G54C G80U,0.206
22,G54C C75U,0.358
23,G54C C75A,0.138
24,G54C C75G,0.151

row,Variant,self-cleavage
1,G52U C64A,0.911
2,G54C G74U,0.475
3,G54A C84G,0.462
4,G54A C84U,0.563
5,G54A C84A,0.496
6,G54U G68U,0.842
7,G54U G68A,0.81
8,G54U G68C,0.496
9,G52U G74C,0.363
10,G53U C75G,0.214
11,G54C C58G,1.04
12,G53A U69A,1.03
13,G53A U69C,1.11
14,G53A U69G,1.04
15,G52U G55U,0.822
16,G52U G55A,0.731
17,G53U C86U,1.14
18,G54A U65G,0.466
19,G54A U65A,0.267
20,G53U A78G,0.739
21,G53U A78C,0.229
22,G53U U65G,0.831
23,G54A G59U,1.06
24,G54C C85U,0.892

row,Variant,self-cleavage
1,G54C C85G,0.724
2,G54C C85A,0.831
3,G53A A71U,0.904
4,G53A A77G,0.916
5,G53A A77C,0.251
6,G52U G68U,0.415
7,G52U G68C,0.185
8,G53U A71G,0.843
9,G54U A71G,0.897
10,G54U A71U,0.987
11,G54U A71C,0.654
12,G53A C64U,0.968
13,G53A C64A,0.639
14,G53A C85U,0.872
15,G53U A87G,1.03
16,G53U A87C,0.984
17,G53U A87U,0.969
18,G52U G59C,0.765
19,G54U C75A,0.241
20,G54U C75U,0.189
21,G54A G80C,0.0831
22,G54A G80U,0.214
23,G53U G54C,0.845
24,G53U G54U,0.831

row,Variant,self-cleavage
1,G53U G54A,0.758
2,G52U C86A,0.926
3,G52U C86U,1.02
4,G53C A77C,0.443
5,G54A A71U,0.912
6,G54A U72A,0.707
7,G53C G81U,0.293
8,G53C G81A,0.369
9,G53C C86G,0.903
10,G54C A87U,0.901
11,G54A G82C,0.282
12,G54A G82A,0.208
13,G54U G67U,0.774
14,G54U G67C,0.694
15,G52U C62U,0.754
16,G54A G67C,0.591
17,G53A A87G,0.995
18,G53C A78U,0.525
19,G53C A78G,0.554
20,G53U G67A,0.855
21,G54C C61A,0.926
22,G54C C61U,1.01
23,G53U G68C,0.277
24,G53A C61A,0.987

row,Variant,self-cleavage
1,G53A C61U,0.99
2,G54U A83G,0.956
3,G54U A83C,0.386
4,G52U C66G,0.472
5,G52U C66A,0.618
6,G52U C66U,0.737
7,G54C G73A,0.565
8,G54C G55C,0.981
9,G54C G55U,1.05
10,G54A C85G,0.892
11,G52U G53C,0.672
12,G52U G53U,0.733
13,G54C A70C,0.755
14,G54C A70G,1.07
15,G54C A70U,0.81
16,G53C G67C,0.427
17,G53C G67U,0.631
18,G53C G67A,0.723
19,G53U C85U,0.969
20,G53C G73A,0.782
21,G53C G73C,0.36
22,G53C G73U,0.369
23,G53A G55U,1.17
24,G54A C62U,1.05

row,Variant,self-cleavage
1,G54A C62G,1.06
2,G54A C62A,0.917
3,G54C U65C,0.92
4,G54C U65G,0.8
5,G54C U65A,0.721
6,G54A A70C,0.779
7,G54A A56U,0.878
8,G54A A56C,1.03
9,G52U U79A,0.759
10,G53U C58U,1.03
11,G53U C58G,0.939
12,G53U C58A,1.02
13,G54U C58U,0.94
14,G53A G59U,0.862
15,G53A G59C,0.872
16,G53C C75U,0.131
17,G54C G82C,0.397
18,G53A U79C,0.376
19,G54A U79A,0.465
20,G53C C66U,0.918
21,G53C C66G,1.01
22,G53C C66A,0.73
23,G53U U79A,0.509
24,G53U U79G,0.405

row,Variant,self-cleavage
1,G53U U79C,0.535
2,G53A G80U,0.234
3,G54U G74A,0.601
4,G53U G82U,0.427
5,G53U G73U,0.472
6,G53U G73C,0.428
7,G53U G73A,0.831
8,G52U G54C,0.684
9,G53A C75G,0.156
10,G54A A78U,0.245
11,G53U C57G,1.1
12,G53U C57U,1.01
13,G53U G76C,1.11
14,G52U G73U,0.305
15,G52U G73C,0.155
16,G53C G59U,0.967
17,G54C A83G,0.905
18,G54U G73U,0.364
19,G54U G73C,0.297
20,G54A C75G,0.185
21,G54A C75A,0.211
22,G54A C75U,0.164
23,G53U G55C,1.01
24,G54U G55C,0.953

row,Variant,self-cleavage
1,G54A G76A,0.923
2,G54A G76U,0.799
3,G54U C85G,0.888
4,G54A U69G,0.882
5,G54C A77C,0.426
6,G54C A77U,0.695
7,G53A G81U,0.272
8,G53A G81A,0.456
9,G53A U65C,0.815
10,G52U G80U,0.312
11,G54U A56G,1.15
12,G54U A56C,0.861
13,G54C G68U,0.616
14,G52U U72C,0.426
15,G52U U72G,0.396
16,G54C A56C,0.864
17,G54C A56U,1.06
18,G53U C63G,1.02
19,G53U C63U,0.895
20,G54A G81C,0.26
21,G54A G81A,0.511
22,G53C G55A,0.898
23,G53C G55U,0.987
24,G54A C64A,0.453

row,Variant,self-cleavage
1,G54A C64U,0.696
2,G53A C57U,1.06
3,G53A C57A,0.866
4,G52U C85G,0.791
5,G52U C85U,0.781
6,G53A G67U,0.884
7,G53U G74A,0.646
8,G53U G74U,0.701
9,G53U G74C,0.202
10,G53C A70C,0.653
11,G53C A70U,0.988
12,G53C A70G,0.962
13,G52U U65A,0.82
14,G53A A83U,0.521
15,G53A A83G,0.802
16,G53A A83C,0.464
17,G54C G59A,0.926
18,G54U A78G,0.534
19,G54U A78U,0.302
20,G53U C62U,1.06
21,G53U C62G,0.793
22,G54U C57G,1.1
23,G54U A70U,0.997
24,G52U C84G,0.573

row,Variant,self-cleavage
1,G52U C84A,0.904
2,G54U A77C,0.415
3,G54C U79G,0.475
4,G54C U79A,0.755
5,G52U G81C,0.298
6,G53C U72G,0.697
7,G53C U72A,0.601
8,G53C U72C,1.02
9,G53U A70U,0.739
10,G53U A70G,1.08
11,G53A U60G,1.01
12,G53A U60A,0.938
13,G53C G54C,0.706
14,G53C G54U,1.08
15,G53A C86A,1.16
16,G53A C86G,1.1
17,G53C C62U,1.03
18,G53C C62A,0.937
19,G53U U69C,0.931
20,G53U U69G,0.964
21,G53U U69A,0.969
22,G53U A77U,0.623
23,G53U A77C,0.453
24,G54C C66G,0.591

row,Variant,self-cleavage
1,G54C C66U,0.917
2,G54C C66A,0.814
3,G54U C61A,1.04
4,G54U C61G,0.889
5,G52U G82A,0.277
6,G52U U69G,1.19
7,G54C G67U,0.783
8,G54C G67C,0.627
9,G54C G67A,0.819
10,G53C C84U,0.712
11,G54A C66A,0.634
12,G54A C66U,0.933
13,G54A C66G,0.821
14,G54C U69A,0.945
15,G54C U69C,0.99
16,G53A C84G,0.85
17,G54C C57G,1.05
18,G54C C57A,0.937
19,G54U G59C,1.03
20,G54A C58G,1.03
21,G54C C84A,0.598
22,G54C C84G,0.917
23,G52U C63U,1
24,G53C U60A,1.15

row,Variant,self-cleavage
1,G54U C66A,0.796
2,G54U C66G,0.882
3,G53A A70G,1.07
4,G54A C61U,1.04
5,G54A C61G,0.881
6,G53U U60C,0.923
7,G53C U69A,0.77
8,G53U G81U,0.28
9,G54A G68A,0.895
10,G54A G68U,0.641
11,G53U,1.01
12,G53A,1
13,G53C,0.97
14,G53U C61A,1.02
15,G53A C58U,0.987
16,G53A C58A,0.962
17,G53A U72C,0.731
18,G53A U72G,0.429
19,G53C G82C,0.0923
20,G53C G82A,0.383
21,G53C G82U,0.358
22,G54U C64G,0.831
